Experiments:
kallikrein-6 = kallikrein-6 (Homo sapiens, UniProt Q92876); experiment: enzyme inhibition
cationic trypsin = cationic trypsin (Homo sapiens, UniProt P07477); experiment: enzyme inhibition
factor XIa = factor XIa (Homo sapiens, UniProt P03951); experiment: enzyme inhibition
anionic trypsin = biological target: T1, anionic trypsin (Homo sapiens, UniProt P07478); experiment: enzyme inhibition
T1 chain: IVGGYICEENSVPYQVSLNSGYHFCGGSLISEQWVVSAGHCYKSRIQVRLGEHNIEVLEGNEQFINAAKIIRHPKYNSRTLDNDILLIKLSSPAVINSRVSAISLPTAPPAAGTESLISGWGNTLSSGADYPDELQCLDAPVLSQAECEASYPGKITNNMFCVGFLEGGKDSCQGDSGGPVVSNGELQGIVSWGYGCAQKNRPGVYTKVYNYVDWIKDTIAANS

mesotrypsin = biological target: T2, mesotrypsin (Homo sapiens, UniProt P35030); experiment: competitive inhibition of Z-GPR-pNA cleavage
T2 chain: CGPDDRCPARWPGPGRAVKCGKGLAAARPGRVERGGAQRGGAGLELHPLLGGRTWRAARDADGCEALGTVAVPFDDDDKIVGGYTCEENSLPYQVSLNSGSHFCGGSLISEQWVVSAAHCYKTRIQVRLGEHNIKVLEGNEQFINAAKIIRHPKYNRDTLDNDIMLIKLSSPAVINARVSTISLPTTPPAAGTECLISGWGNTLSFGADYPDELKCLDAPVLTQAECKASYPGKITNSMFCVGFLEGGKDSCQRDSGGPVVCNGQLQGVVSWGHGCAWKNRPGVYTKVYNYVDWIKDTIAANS

Chain of factor XIa (P03951 388-625): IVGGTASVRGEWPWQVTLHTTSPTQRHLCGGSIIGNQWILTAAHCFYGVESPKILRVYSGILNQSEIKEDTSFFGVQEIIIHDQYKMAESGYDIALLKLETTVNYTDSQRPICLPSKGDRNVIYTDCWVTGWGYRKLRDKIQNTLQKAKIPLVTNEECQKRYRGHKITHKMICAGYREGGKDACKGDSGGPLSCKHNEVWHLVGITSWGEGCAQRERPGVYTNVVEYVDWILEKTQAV

B1: APPI Kunitz domain (protein)
chain: VREVCSEQAETGPCRAMISRWYFDVTEGKCAPFFYGGCGGNRNNFDTEEYCMAVCGSA
Ki (kallikrein-6): 2.23 nM | Ki (cationic trypsin): 0.00627 nM | Ki (factor XIa): 0.41 nM | Ki (anionic trypsin): 0.00174 nM | Ki (mesotrypsin): 131 nM
